# Assay: soluble on expression in E. coli; label from the status in PepcDB or PDB records
row,Sequence,soluble on expression in E. coli
1,MSLKTQQSYQQRDDKGTLYLVATPIGNLEDVTFRAIRTLKEADQIAAEDTRQTKKLLNHFDIATKLVSYHEHNKETMGKRLIDDLIEGRTIALVSDAGMPAISDPGYELVVSAIKEGIAVIPIPGANAAVTALIASGLPTESFQFIGFLPRQKKQRRQALEETKPTKATLIFYESPHRLKDTLDDMLLILGNRHVSICRELTKTYEEFLRGTLEEAVHWAREATIKGEFCLIVEGNGEKVEPEEVWWESLSPVQHVEHYIALGFRSKEAIKQVATDRGVPKRDIYNIYHQEEGHHHHHH,soluble
2,GPGSMSFSHFVPPISRRRMFFEDQLDEALSREGSPRLSTSNTVGGADLVAAGAANDETFPFPSHAAPGHLLKSLIQATENERCAPDILPYPEAIVDSVVAQIVAQNEQIRLLGTDERQKAAGSDSGVSLLPFKPSDIMALEVQRAQFFLCELLRCRLRKIEALALTINYESQSGAEAHTQLREHLSHNEIVVADRLAELISKCVRQAGLQSAPSELQQLVPNAPYAEGNEVLPIPDIDHYVFCVVLDDLGVVRLGDDAEQTVHAGEVFIVPYRTFRPYILEGRVRLV,not soluble
3,YSFIGNPVFKKPFELDEMREYYLNFFERRGHGRIERYPVVARWRTDIYLTIASIADFQPFVTSGVAPPPANPLTISQPCIRLDDLDSVGRTGRHLTLFEMMAHHAFNYPGKEIYWKNETVAYCTELLNELGVKKEDIVYKEEPWAGGGNAGPCLEAIVGGLEVATLVFMNLEEHPEGDIEIKGARYRKMDNYIVDTGYGLERFVWASKGTPTVYDAIFPEVVDTIIDNSNVSFNREDERVRRI,not soluble
4,MGSDKIHHHHHHMTETERLALASLLYQLADDDFLYAYRGSEWLGLAPHIEEDVASSSIAQDSMGHAAMYYQLLEEIGEGKADALAHVRLAHERKNSVLVERVNGPGYYMENPEYDWAYAVVRNYCYTLAKKVRIDSLKKSSYTPLAALAVKVNMELYYHLLHWQTWFTQLYQSTETARQKMDAALERVLADFGDLFDYGEASELIDEMRLIEGQGILLDRWYQALTPVLVDLNVTLPEMKMTYNGRNGEHSPDLNDALSTLGEVYLLDQSAVW,not soluble
5,AMSYTPGQPVTAVVQRVEIHKLRQGENLILGFSIGGGIDQDPSQNPFSEDKTDKGIYVTRVSEGGPAEIAGLQIGDKIMQVNGWDMTMVTHDQARKRLTKRSEEVVRLLVTRQ,soluble
6,VPQQSATKLVQQWQPLLQRWGELAGVEIKFATARDIPTFEARLMAGEYDIAYMNPYHFTLVNQTPGYTALARAKNKRITGIIVARKGQSVTLDDLQEETIAFPAPRAFAASIITQSELEQKGIKFTPKYVGSHD,not soluble
7,TSPVNWDVTGTFSMNRTYMKKLPYNGRDKNRVQGGLVWDAKSGTYVETGGLAEGERIGGRWGYKYLGVYDTDEEAAKAPVDTKVSGSKMNKKKVAGDAIWADLDNNGVIDDKDITFIGWANPDKKGALINNLSYKNFSLRLVVDFALGHSIANIWRCRANANARNAIITTTDVTNGNIWWQTGDAATAKYPRYDVASDWDNGYRNHMRTIAYAGMNSNGNADNTAYYSKGDYLCFREVSLGYELPRSVCSKMKVKGVSLNAGVTNIGYITAFDGLNPEQYDGQETGEYFLPIQFNFGVRLTF,not soluble
8,MQQLINSLFMEAFANPWLAEQEDQARLDLAQLVAEGDRLAFSTDSYVIDPLFFPGGNIGKLAICGTANDVAVSGAIPRYLSCGFILEEGLPMETLKAVVTSMAETARAAGIAIVTGDTKVVQRGAVDKLFINTAGMGAIPANIHWGAQTLTAGDVLLVSGTLGDHGATILNLREQLGLDGELVSDCAVLTPLIQTLRDIPGVKALRDATRGGVNAVVHEFAAACGCGIELSEAALPVKPAVRGVCELLGLDALNFANEGKLVIAVERNAAEQVLAALHSHPLGKDAALIGEVVERKGVRLAGLYGVKRTLDLPHAEPLPRIC,not soluble
9,MGSDKIHHHHHHMLKICVIGSSGHFRYALEGLDEECSITGIAPGVPEEDLSKLEKAISEMNIKPKKYNNWWEMLEKEKPDILVINTVFSLNGKILLEALERKIHAFVEKPIATTFEDLEKIRSVYQKVRNEVFFTAMFGIRYRPHFLTAKKLVSEGAVGEIRLVNTQKSYKLGQRPDFYKKRETYGGTIPWVGIHAIDWIHWITGKKFLSVYATHSRLHNSGHGELETTALCHFTLENEVFASLSIDYLRPQGAPTHDDDRMRIVGTRGIVEVINERVFLTDEKGHREVPLVEKGQIFEDFLREIRGQGKCMVTPEDSILTTEIALKARLSADTGQIVLI,not soluble
10,MGSDKIHHHHHHMQWETVIGLEIHAQLSTRSKIFSGASVAYGAEPNSQACAVDIALPGVLPVLNRQAIEYAIRFGLAIDATINSPSVFARKNYFYPDLPKGYQISQLEHPIVEGGHVAIQTGDQEKTIRLTRAHLEEDAGKSTHEEFHGMTGIDLNRAGTGLLEIVSEPDMRSSAEAVAYAKVLHSLVRWIGICDGNMQEGSFRCDANVSVRPAGSEALGTRCEIKNLNSFRFLERAIDYEVARQIDILESGGSITQETRLYDADRDETRTMRSKEDAHDYRYFPDPDLLPVIIPQEWIDQIREKLPELPKDKRNRYIQDFGLQTYDANILTAARELADYFEQMVSVLPGQSKLCANWIMGEVSARLNKEGLEIARSPISPEQLAGLLLRITDGTISGKIAKDVFDSMWQSNGDSADTIIDAKNLRQISDDSEIEKWVDDVLAANPQQVADYRAGKEKAFNSLVGQVMKTSKGKANPAQVNSVLKKRLTE,not soluble
11,MAEKLGPEKRHAFVHNGQKVFEWDQTLEEVNMYIELPKGVPTKLFHCAIQATHVEVGIRGNPPYLNFYICGSYFLYELSIQFSEQFDEWTPSSEDGEMHITLQKREKGKTWSSPIQGQGSLDPYAADQEQKRLMLQRFQEENPGFDFSQAQFTGTCPDPRTFMGGIRSD,soluble
12,MSLDKRYIIAEIKVSIVKTQSAGADYTDHAAGHWINDTIIANPMSVYNDFQHSRSAWGMDVLKGIFIEVTTESGHQGYATAYGGYISSWIIKNHLNRFLIGADARNLSKLYDQMYRASIPYSGQNGVVINTIAGIDLALWDLIGKVRQEPVYMMIGGKVREKLQTYVTGPEAKLAQDWGHVGSKIPLPYGPGDGIVGLKKNQEYIMETRKQVGSDYRLMVDCYMSLDVPYAIDLANAVKEANLYWIEEALPPHDLESHKHIKDACPWQKWTTGEHTNSRYGFRNLIRDRSVDILQPDLTLCGMTETLRIAAMASAYDITVIPHCSGVYAYNFGIASTLTPFNEFINLHPKATEVVPIFGKMFTNEPVPIKGEVTLTDLPGFGAELNKEVELEEIEGHHHHHH,soluble
13,MNALTPLSARLERSDGHALVTLARSRGAVRLRDLAQRGSAKAFLPRVEGDVPEVVFLNTSGGLTGGDRLSYRLEVGEGCRATATTQTAERAYAAGAGAARVEVLHEVGRDGWLDWLPQETILFEGAALERETQISLAPGAGCLMVESVVLGRAAMGETLSRLAFRDRRSILRGGKPVVVEPLALDDRALAAAGGAAMLGGARALATLAMVGPGAEDALGPARAALGEAGVEAAASAFDGKLVLRLLAADGWPLRRQVARLLTVLRGRALPRVWQVLEHHHHHH,not soluble
14,MSLKLFGTDGVRGKAGEFLDSFLAMRLAMAAGIYFKDKSITNNILVGKDTRRSGYMIENAIVSGLTSIGYNVIQIGPMPTPAIAFLTEDMRCDAGIMISASHNPYYDNGIKFFDAHGNKLSEDIEKKIEEIYFDDKLIQASKVDMEKIGQAKRIDDVIGRYIVSIKNSFPKDLTLKSLRVVLDVAHGAAYKVAPTVFKELGAEVIVMSDKPNGLNINENCGALHPANLAAEVKRLRADVGFAFDGDADRLVVVDEKGEVANGDSLLGVLALYLKEQGKLQSSVVATIMSNGALKEFLNKHGIELDTCNVGDKYVLEKLKANGGNFGGEQSGHIIFSDYAKTGDGLIAALQFSALMLSKKKSASSILGQVKPYPQLLTNLKIAEKKDLDKIKGLKELKKDLENKNINTLFRYSGTENLIRLLLEARDIKLLEKEMKNVVEFFKKALNGEGHHHHHH,not soluble
15,MEKNMRPYTVLWADDEIDLLKPHILFLEQKGYQVTPVLSGNDAIEAVQNNDFDIVFLDENMPGIGGLDALQKIKELKPYTPVVMITKSEEEHIMTQAIGGKIADYLIKPVNPNQLLLSLKKNLQQHSIISETTNTNYRQEFVQLGTQMSGKLSFEEWKELYRRIVFWEIELEQADRQMGELLEMQKQEANRLFARFVTQNYREWIAKPDTRPTMSPDLFKQKVFPLLDNGEKVFFILIDNFRQDQWESVKSMLSEFYTFEEDMYLSILPTATQYARNAIFSGLMPLQIEKMFPDLWVDEESEEGKNLNEEPMIRTLIERYRKHYSFSYNKVYETKFGERLLGQIRSLSQNQLNVIVLNFVDMMSHARTDSKMIRELASNEAAYRSLTKSWFKHSTTYNLFRSIAEMGYKVVLTTDHGTIQVKNPVKVIGDRSTNTNLRYKIGKNLDYNPKEVFEIKDPASVGLPHNNLSDKFIFTKEDDFFAYPNNYNYYVQYYRNTFQHGGISLEEMLVPVITMQPK,not soluble
16,PDGDFVDLAWSEDPHQARHKPRLVVFHGLEGSLHSPYAHGLIHAAMQRGWLGVVMHFRGCSGEPNRNHRIYHSGETEDGTWFLHWLKREFGPAPTAAVGYSLGGNMLGCLLAEEGDRCPLDAAVIVSAPFMLEACSYHMDKGFSRVYQRYLLNLLKANASRKLKAYPGSLPVDLRQLKGMRRIREFDDMITAKIHGFADALDYYRQCSAMPRLSDITKPTLIIHAKDDPFMDHHSIPPQEQLPANVEYQLTEQGGHVGFVSGTLRKPEMWLERRIPDWLNRWLE,not soluble
17,MAELLLGVNIDHIATLRNARGTDYPDPVQAAFIAEQAGADGITVHLREDRRHITDRDVRILRQTLHTRMNLEMAVTEEMLAIAVETRPHFCCLVPEKRQEVTTEGGLDVAGQRDKMRDACARLAAAGIQVSLFIDADETQINAAAEVGAPFIEIHTGCYANAETDAEQAKELARIASAATLAARLGLKVNAGHGLTYHNVKAIAALPEMHELNIGHAIIGRAVMTGLKEAVAEMKRLMLEARG,not soluble
18,MTIENDYAKLKELMEFPAKMTFKVAGINREGLAQDLIQVVQKYIKGDYIPKEKRSSKGTYNSVSIDIIAENFDQVETLYKELAKVEGVKMVI,not soluble
19,MVNPQAGVVVGYWHNWCGGAGYKGGVAPCVSLAQVNPQYNVVDISFMKVYGATGSIPTFKLDPAVGLSEAQFIDQIGELNRQGRAVLIALGGADAHIELRKGQEHDLANEIIRLVEKYGFDGLDIDLEQAAVTAADNQIVIPAALRIVKDHYRKQQKNFLITMAPEFPYLTTGGKYVPYINALEGYYDWINPQFYNQGGDGIYIEGIGWIAQNNDSLKQEFIYHISDALVNGTNGFTKIPHDKLVFGIPTNIDAAATGYVSDPNALFAAFEQLKNQGQPLRGLMTWSVNWDMGKNAAGQAYNESFIKAYGPFIHGQDITPPEPENGKPIFSGLSNTRVKLGGTFNAMDGVSAYDEEDKDLTQQIQVTGDVNTNQIGLYPLTYKVTDSDNNTTEQVRTVEVYNTKPELSGVSNTTIILATPFDAMAGVSATDAEDGNLTPNIRVEGEVDSNRVGQYQLTYSVSDSAGEQTRAVRLVTVQEQGAVCENLWSASKIYLGGDTVNYAGKIWLAGWWTQGEQPDLAGEWGVWKSKGDSDCDSGLPPVITPNFTVSGLASSYILNQGQVSINFNVNTNQAMELTANLTQEQRILASTTATINGNGAMVLQAESLEAGAYQVVISAKDKNLTQSYNVSLVQGDDGSEPVEYPAYVAGNQYQAGNIVTNAGGVYQCRPWPNSGWCSGSAPYYAPGTGSAWQDAWTKHLEHHHHHH,soluble
20,ATLKQLDGIHVTILHKEEGAGLGFSLAGGADLENKVITVHRVFPNGLASQEGTIQKGNEVLSINGKSLKGTTHHDALAILRQAREPRQAVIVTRKLTPEAMPDLNS,soluble

# Source: the DeepSol protein solubility set
